In the Human Domainome abundance scans (Beltran et al. 2025):
± gives the uncertainty stated by the source.

B1: Glucocorticoid receptor, residues 419 to 494; numbered along this chain, P04150 (parent)
chain: KLCLVCSDEASGCHYGVLTCGSCKVFFKRAVEGQHNYLCAGRNDCIIDKIRRKNCPACRYRKCLQAGMNLEARKTK

Variants of: B1
Assay: abundance fitness (aPCA) (normalised: wild type 0, dead -1); higher = more abundant; growth selection in yeast, the domain comes from the species named
Conditions: Homo sapiens
For KLCLVCSDEASGCHYGCLTCGSCKVFFKRAVEGQHNYLCAGRNDCIIDKIRRKNCPACRYRKCLQAGMNLEARKTK, the abundance fitness was 0.057 ± 0.062. In the case of KLCLVCSDEASGCHYGFLTCGSCKVFFKRAVEGQHNYLCAGRNDCIIDKIRRKNCPACRYRKCLQAGMNLEARKTK, the abundance fitness is reported as -0.355 ± 0.084. KLCLVCSDEASGCHYGGLTCGSCKVFFKRAVEGQHNYLCAGRNDCIIDKIRRKNCPACRYRKCLQAGMNLEARKTK showed an abundance fitness of -0.176 ± 0.036. Variant KLCLVCSDEASGCHYGELTCGSCKVFFKRAVEGQHNYLCAGRNDCIIDKIRRKNCPACRYRKCLQAGMNLEARKTK has an abundance fitness of -0.389 ± 0.062. Variant KLCLVCSDEASGCHYGDLTCGSCKVFFKRAVEGQHNYLCAGRNDCIIDKIRRKNCPACRYRKCLQAGMNLEARKTK has an abundance fitness of -0.405 ± 0.12. Variant KLCLVCSDEASGCHDGVLTCGSCKVFFKRAVEGQHNYLCAGRNDCIIDKIRRKNCPACRYRKCLQAGMNLEARKTK has an abundance fitness of -0.055 ± 0.049. With KLCLVCSDEASGCHWGVLTCGSCKVFFKRAVEGQHNYLCAGRNDCIIDKIRRKNCPACRYRKCLQAGMNLEARKTK the abundance fitness was 0.008 ± 0.049. For KLCLVCSDEASGCHIGVLTCGSCKVFFKRAVEGQHNYLCAGRNDCIIDKIRRKNCPACRYRKCLQAGMNLEARKTK, the abundance fitness was -0.298 ± 0.084. With KLCLVCSDEASGCHHGVLTCGSCKVFFKRAVEGQHNYLCAGRNDCIIDKIRRKNCPACRYRKCLQAGMNLEARKTK the abundance fitness was -0.088 ± 0.08. For KLCLVCSDEASGCHQGVLTCGSCKVFFKRAVEGQHNYLCAGRNDCIIDKIRRKNCPACRYRKCLQAGMNLEARKTK, the abundance fitness was -0.08 ± 0.046. Variant KLCLVCSDEASGCHVGVLTCGSCKVFFKRAVEGQHNYLCAGRNDCIIDKIRRKNCPACRYRKCLQAGMNLEARKTK has an abundance fitness of -0.208 ± 0.038. Variant KLCLVCSDEASGCHMGVLTCGSCKVFFKRAVEGQHNYLCAGRNDCIIDKIRRKNCPACRYRKCLQAGMNLEARKTK has an abundance fitness of -0.009 ± 0.045. Work on KLCLVCSDEASGCHTGVLTCGSCKVFFKRAVEGQHNYLCAGRNDCIIDKIRRKNCPACRYRKCLQAGMNLEARKTK yielded an abundance fitness of -0.05 ± 0.046. With KLCLVCSDEASGCHGGVLTCGSCKVFFKRAVEGQHNYLCAGRNDCIIDKIRRKNCPACRYRKCLQAGMNLEARKTK the abundance fitness was -0.096 ± 0.035. For KLCLVCSDEASGCHEGVLTCGSCKVFFKRAVEGQHNYLCAGRNDCIIDKIRRKNCPACRYRKCLQAGMNLEARKTK, the abundance fitness was -0.067 ± 0.042. KLCLVCSDEASGCHPGVLTCGSCKVFFKRAVEGQHNYLCAGRNDCIIDKIRRKNCPACRYRKCLQAGMNLEARKTK showed an abundance fitness of -0.134 ± 0.048. KLCLVCSDEASGCHLGVLTCGSCKVFFKRAVEGQHNYLCAGRNDCIIDKIRRKNCPACRYRKCLQAGMNLEARKTK showed an abundance fitness of -0.164 ± 0.037. KLCLVCSDEASGCHCGVLTCGSCKVFFKRAVEGQHNYLCAGRNDCIIDKIRRKNCPACRYRKCLQAGMNLEARKTK gave an abundance fitness of -0.153 ± 0.06. Work on KLCLVCSDEASGCHRGVLTCGSCKVFFKRAVEGQHNYLCAGRNDCIIDKIRRKNCPACRYRKCLQAGMNLEARKTK yielded an abundance fitness of -0.152 ± 0.036. Variant KLCLVCSDEASGCHNGVLTCGSCKVFFKRAVEGQHNYLCAGRNDCIIDKIRRKNCPACRYRKCLQAGMNLEARKTK has an abundance fitness of 0.004 ± 0.067. Work on KLCLVCSDEASGCHYWVLTCGSCKVFFKRAVEGQHNYLCAGRNDCIIDKIRRKNCPACRYRKCLQAGMNLEARKTK yielded an abundance fitness of -0.83 ± 0.13. KLCLVCSDEASGCHYEVLTCGSCKVFFKRAVEGQHNYLCAGRNDCIIDKIRRKNCPACRYRKCLQAGMNLEARKTK gave an abundance fitness of -0.251 ± 0.05. In the case of KLCLVCSDEASGCHYVVLTCGSCKVFFKRAVEGQHNYLCAGRNDCIIDKIRRKNCPACRYRKCLQAGMNLEARKTK, the abundance fitness is reported as -0.738 ± 0.079. With KLCLVCSDEASGCHYLVLTCGSCKVFFKRAVEGQHNYLCAGRNDCIIDKIRRKNCPACRYRKCLQAGMNLEARKTK the abundance fitness was -0.558 ± 0.05. Variant KLCLVCSDEASGCHYAVLTCGSCKVFFKRAVEGQHNYLCAGRNDCIIDKIRRKNCPACRYRKCLQAGMNLEARKTK has an abundance fitness of -0.216 ± 0.037. Work on KLCLVCSDEASGCHYMVLTCGSCKVFFKRAVEGQHNYLCAGRNDCIIDKIRRKNCPACRYRKCLQAGMNLEARKTK yielded an abundance fitness of -0.369 ± 0.08. With KLCLVCSDEASGCHYCVLTCGSCKVFFKRAVEGQHNYLCAGRNDCIIDKIRRKNCPACRYRKCLQAGMNLEARKTK the abundance fitness was -0.483 ± 0.12. Variant KLCLVCSDEASGCHYKVLTCGSCKVFFKRAVEGQHNYLCAGRNDCIIDKIRRKNCPACRYRKCLQAGMNLEARKTK has an abundance fitness of -0.295 ± 0.055. For KLCLVCSDEASGCHYSVLTCGSCKVFFKRAVEGQHNYLCAGRNDCIIDKIRRKNCPACRYRKCLQAGMNLEARKTK, the abundance fitness was -0.182 ± 0.04. KLCLVCSDEASGCHYPVLTCGSCKVFFKRAVEGQHNYLCAGRNDCIIDKIRRKNCPACRYRKCLQAGMNLEARKTK showed an abundance fitness of -0.302 ± 0.051. In the case of KLCLVCSDEASGCHYDVLTCGSCKVFFKRAVEGQHNYLCAGRNDCIIDKIRRKNCPACRYRKCLQAGMNLEARKTK, the abundance fitness is reported as -0.078 ± 0.064. For KLCLVCSDEASGCHYRVLTCGSCKVFFKRAVEGQHNYLCAGRNDCIIDKIRRKNCPACRYRKCLQAGMNLEARKTK, the abundance fitness was -0.318 ± 0.04. With KLCLVCSDEASGCHYHVLTCGSCKVFFKRAVEGQHNYLCAGRNDCIIDKIRRKNCPACRYRKCLQAGMNLEARKTK the abundance fitness was -0.291 ± 0.072. KLCLVCSDEASGCHYTVLTCGSCKVFFKRAVEGQHNYLCAGRNDCIIDKIRRKNCPACRYRKCLQAGMNLEARKTK showed an abundance fitness of -0.264 ± 0.049. KLCLVCSDEASGCHYNVLTCGSCKVFFKRAVEGQHNYLCAGRNDCIIDKIRRKNCPACRYRKCLQAGMNLEARKTK gave an abundance fitness of 0 ± 0.085. In the case of KLCLVCSDEASGCHYQVLTCGSCKVFFKRAVEGQHNYLCAGRNDCIIDKIRRKNCPACRYRKCLQAGMNLEARKTK, the abundance fitness is reported as -0.225 ± 0.049.
